Laboratory results: the supplement of paper PMC9876800

System: peptide library, one residue held at a place counted from the S/T acceptor
Experiment: relative phosphorylation of the sub-library (ratio to the mean residue at this position); higher = residue favoured
In short: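 Human or orthologue kinase constructs, purified and recombinant, were incubated under kinase-specific conditions in 384-well plates with biotinylated degenerate peptide sub-libraries. Each sub-library fixed one residue at one position around a central Ser/Thr. Incubations lasted 90 min with peptides at 50 μM and 50 μM ATP spiked with γ-32P-ATP, after which spots on streptavidin membranes were phosphorimaged and quantified by densitometry. Relative sub-library phosphorylation is a ratio to the mean residue at that position.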

BMP2K, construct: aa37-345, human, sequence (Q9NSY1 37-345, looked up): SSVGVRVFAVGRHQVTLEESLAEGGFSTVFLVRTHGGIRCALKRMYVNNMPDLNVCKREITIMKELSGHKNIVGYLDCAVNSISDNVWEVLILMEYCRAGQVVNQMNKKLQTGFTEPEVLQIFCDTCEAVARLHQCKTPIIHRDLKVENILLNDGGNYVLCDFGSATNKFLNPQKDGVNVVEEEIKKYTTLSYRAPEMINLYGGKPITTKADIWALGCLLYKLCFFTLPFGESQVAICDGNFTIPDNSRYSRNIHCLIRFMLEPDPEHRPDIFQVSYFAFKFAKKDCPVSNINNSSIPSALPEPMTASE
CAMK1G, construct: aa4-312, human, sequence (Q96NX5 4-312, looked up): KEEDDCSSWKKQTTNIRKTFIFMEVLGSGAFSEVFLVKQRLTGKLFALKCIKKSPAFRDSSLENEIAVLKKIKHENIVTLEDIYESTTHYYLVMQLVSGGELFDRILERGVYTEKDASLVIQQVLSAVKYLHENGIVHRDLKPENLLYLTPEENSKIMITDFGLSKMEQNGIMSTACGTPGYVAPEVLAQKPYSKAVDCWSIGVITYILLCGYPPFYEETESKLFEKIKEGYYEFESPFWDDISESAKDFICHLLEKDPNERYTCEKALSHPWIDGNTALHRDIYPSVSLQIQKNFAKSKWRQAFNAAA

TSSK2, construct: Full length, human (from UniProt Q96PF2)
relative phosphorylation
Conditions	at +1	at +2	at +3	at +4	at -1	at -2	at -3	at -4	at -5
A fixed	0.97	0.852	0.804	0.774	1.18	1.86	1.24	1.3	1.2
D fixed	0.871	0.578	1.44	0.8	0.771	0.379	0.466	0.655	0.247
E fixed	1.25	0.793	0.998	0.629	0.932	0.42	0.671	1.04	0.216
F fixed	1.06	1.27	1.37	1.43	0.685	0.699	0.589	0.583	0.882
G fixed	0.625	0.388	0.688	0.663	0.74	0.939	1.19	1.22	0.439
H fixed	1.05	2.95	1.53	0.822	0.874	0.952	0.933	1.12	0.518
I fixed	0.683	1.3	0.642	1.47	0.673	0.954	0.734	0.816	1.75
K fixed	1.41	0.47	1.04	0.766	1.68	2.3	1.86	1.99	0.569
L fixed	0.92	1.27	0.834	1.98	0.847	0.55	0.67	0.877	3.08
M fixed	0.965	1.1	0.944	1.51	0.893	0.725	0.668	1.19	1.32
N fixed	1.25	0.861	1.49	0.942	0.96	1.17	0.824	0.829	0.393
P fixed	0.143	0.438	0.324	0.846	1.72	0.513	1.27	0.348	1.34
Q fixed	1.31	1.09	0.95	0.882	1.41	1.08	0.935	0.849	0.71
R fixed	1.78	0.574	1.11	0.648	1.49	1.77	2.96	1.85	0.952
V fixed	0.867	1.02	0.677	1.25	0.763	1.47	0.802	0.921	2.15
W fixed	0.789	0.915	1.28	0.941	0.6	0.452	0.598	0.594	0.541
Y fixed	1.06	1.13	0.887	0.646	0.788	0.779	0.587	0.808	0.69
pThr fixed	1.02	0.78	0.485	0.581	0.426	0.262	0.804	0.734	0.503
pTyr fixed	0.925	0.79	0.814	0.556	0.831	0.284	0.641	0.428	0.752

CAMK1G, construct: aa4-312, human (from UniProt Q96NX5)
relative phosphorylation
Conditions	at +1	at +2	at +3	at +4	at -1	at -2	at -3	at -4	at -5
A fixed	0.642	0.76	0.621	0.551	0.799	0.862	0.549	0.716	0.628
D fixed	0.415	0.664	0.754	0.687	0.868	0.426	0.285	0.428	0.451
E fixed	0.379	0.584	0.709	0.651	0.562	0.421	0.274	0.548	0.424
F fixed	2.19	0.959	1.5	1.69	0.634	0.743	0.545	0.916	1.01
G fixed	0.693	0.541	0.763	0.665	0.98	0.927	0.395	0.754	0.628
H fixed	0.691	1.37	1.2	0.846	0.991	0.867	0.602	1.08	0.879
I fixed	0.442	1.1	0.904	1.09	0.554	0.413	0.413	0.913	1.26
K fixed	2.37	1.51	1.22	1.02	2.43	1.64	1.95	2.49	1.38
L fixed	0.51	1.09	1.08	1.99	0.684	0.554	0.506	0.979	2.03
M fixed	0.931	0.968	1.01	1.43	0.723	1.02	0.68	0.936	1.29
N fixed	0.894	1.18	1.41	0.972	1.71	1.03	0.48	0.833	0.656
P fixed	0.305	0.403	0.435	0.747	1.17	0.386	0.343	0.496	0.933
Q fixed	1.27	0.908	0.969	0.986	1.05	2.24	0.777	0.936	0.84
R fixed	3.15	1.78	1.53	1.1	1.97	3.14	7.64	2.06	2.08
V fixed	0.463	0.892	0.642	0.67	0.675	0.483	0.366	0.754	0.818
W fixed	0.896	1.08	1.28	1.05	0.575	1.13	0.617	1.17	0.692
Y fixed	0.756	1.22	0.981	0.856	0.63	0.712	0.581	0.991	0.982
pThr fixed	0.933	1.57	0.938	1.1	0.856	0.667	0.447	0.759	0.579
pTyr fixed	0.717	4.89	1.31	0.992	0.749	0.652	0.486	0.704	0.774

BMP2K, construct: aa37-345, human (from UniProt Q9NSY1)
relative phosphorylation
Conditions	at +1	at +2	at +3	at +4	at -1	at -2	at -3	at -4	at -5
A fixed	0.537	1.05	0.882	0.9	0.668	0.84	1.54	1.11	0.639
D fixed	0.361	0.974	0.763	0.733	0.467	1.22	0.575	0.621	0.453
E fixed	0.338	0.938	0.68	0.806	0.428	0.942	0.684	0.871	0.45
F fixed	0.379	0.866	0.81	0.94	1.26	0.754	0.916	0.963	0.863
G fixed	10.2	0.959	1.4	0.987	0.76	0.579	0.812	1.04	0.565
H fixed	0.392	1.08	1.21	0.989	1.35	1	0.815	0.95	0.739
I fixed	0.351	0.716	0.716	0.769	0.852	0.713	1.26	1	1.92
K fixed	0.435	0.966	1.2	1.39	1.76	0.993	0.926	1.31	0.594
L fixed	0.349	0.699	0.841	0.801	1.17	0.96	0.901	1.15	1.39
M fixed	0.368	0.842	0.765	0.847	1.18	1.91	1.46	1.12	1.24
N fixed	0.46	1.62	1.28	1.06	0.717	1.17	0.843	0.845	0.61
P fixed	0.674	0.802	1.01	0.988	0.846	0.485	1.34	0.868	1.13
Q fixed	0.384	1.22	1.04	1.14	0.818	2.26	1.02	1.08	1.02
R fixed	0.605	1.37	1.51	1.54	1.36	1	1.03	1.29	1.55
V fixed	0.358	0.87	0.929	0.753	0.806	0.64	1.17	0.987	1.32
W fixed	0.431	1.06	0.963	1.26	0.984	0.676	0.832	0.81	0.794
Y fixed	0.414	0.964	1	1.1	1.58	0.872	0.897	0.977	1.73
pThr fixed	0.4	0.715	0.663	0.527	0.427	0.528	0.634	0.638	0.583
pTyr fixed	0.357	0.841	0.698	0.572	0.527	0.928	0.647	0.72	1.19
